Paper doi:10.1101/2025.04.07.647595, “Real-time tracking of mRNP complex assembly reveals various mechanisms that synergistically enhance translation repression”

Molecular target: T1, Sxl-dRBD5 (UniProt P19339 122-305)
T1 sequence: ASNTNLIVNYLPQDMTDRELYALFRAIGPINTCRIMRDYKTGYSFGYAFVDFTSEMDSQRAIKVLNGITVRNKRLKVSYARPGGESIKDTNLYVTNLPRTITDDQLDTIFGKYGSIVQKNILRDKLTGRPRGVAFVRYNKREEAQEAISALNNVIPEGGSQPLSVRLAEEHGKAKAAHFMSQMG
Experiment: NMR; BMRB 52948; C-terminal helix forms on RNA binding; FP: 10 mM Tris/HCl pH 7.5, 20 mM KCl, 25 mM NaCl, 0.005% NP-40; ITC: 50 mM Tris/HCl pH 7.5, 50 or 150 mM KCl, 298 K; smFRET: 50 mM salt at 21 C, or 150 mM at 29 C for Hrp48 assays
Settings: protein: recombinant; tags: His6-Trx-TEV removed

## UUUUUUUUUU (ssRNA) [U10-mer RNA]
  binding result: binds
